Test results taken from paper PMC9274004, “Deciphering the Molecular Interaction Between the Adhesion G Protein-Coupled Receptor ADGRV1 and its PDZ-Containing Regulator PDZD7” (Frontiers in Molecular Biosciences, 2022).

Assays:
[1] = nanoDSF thermostability of unbound PDZD7 constructs; assay type: physicochemical; settings: MES pH6 (50 mM), micromolar concentrations, without ligand
Description: (§1) NanoDSF experiments were performed on a Prometheus (Nanotemper) spectrometer using Prometheus NT.48 Series nanoDSF Grade High Sensitivity Capillaries. All samples were prepared in MES pH6 (50 mM) at micromolar concentrations. For the complexes, ADGRV1pbm peptide was added at a final concentration of 756 μM, diluting the samples by 5%.

[2] = test system: PDZD7 P1P2 WT; test: nanoDSF thermostability of P1P2 WT in complex; assay type: binding, murine; settings: MES pH6 (50 mM), P1P2 WT + ADGRV1pbm 756 μM, unbound Tm 41°C
Description: as §1

[3] = SAXS geometrical parameters of unbound PDZ tandem; assay type: physicochemical; settings: without ligand, Phosphate Buffer 50 mM pH 6.5, NaCl 300 mM, TCEP 0.5 mM
Description: X-ray scattering data were collected at the SWING beamline at Soleil Synchrotron (Saclay, France). 50 μl of sample are injected on a Superdex-75 5/150 GL size exclusion column in-line with the SAXS measuring cell. PDZD7 samples are prepared in the same buffer (Phosphate Buffer 50 mM pH 6.5, NaCl 300 mM, TCEP 0.5 mM, anti-proteases). The experiment is performed at initial concentrations of 119 μM (3.1 mg/ml) for P1P2 WT and 108 μM (2.8 mg/ml) for P1P2 G103R. For complexes, 2 μl of pH-adjusted ADGRV1pbm peptide (VELRRIPIADTHL-COOH; 13,7 mM) are added to the 50 μl from the sample 1 hour before recording. Initial data processing was performed using sxCuBE, FOXTROT and PRIMUS. The radii of gyration were evaluated using Guinier approximation. The Dmax was determined from the distance distribution function P(r) obtained with the program GNOM.

[4] = Analytical UltraCentrifugation of unbound P1P2; assay type: physicochemical; settings: AUC, 10°C, P1P2 0.4 mg/ml, Phosphate Buffer pH 6.5 (50 mM)
Description: AUC experiments were performed at 10°C using an analytical Beckman Coulter Optima ultracentrifuge equipped with a AN50-Ti rotor. The P1P2 sample was prepared at 0.4 mg/ml in Phosphate Buffer pH 6.5 (50 mM). For the complex, 10 μl of pH-adjusted ADGRV1pbm peptide (13,7 mM) were added to 300 μl of P1P2 sample. Interference profiles were analyzed with SEDFIT.

B1: P1P2 WT: PDZD7 PDZ tandem (P1P2 construct; A81 to G313) (protein, UniProt E9Q9W7 81-313, looked up, fragment)
chain: SDIIHAVRVEKSPSGRLGFSVRGGSEHGLGIFVSKVEEGSSAERAGLCVGDKITEVNGLSLESTTMGSAVRLLTSSSCLHMMVRRMGRVPGIKFSKEKTTWVDVVNRRLVVEKCSSTPSDRSSEDGVRRIVHLYTTSDDFCLGFNIRGGKEFGLGIYVSKVDHGGLAEENGIKVGDQVLAANGVRFDDISHSQAVEVLKGQTHIMLTIKETGRYPAYKEMVSEYCWLDRLSNG
[1]
  Tm (Unbound): 41 °C
[2]
  Tm (Bound): 57.2 °C
[3]; Guinier approximation
  radius of gyration (Rg): 27.8 Å
[3]; P(r) with GNOM
  interatomic maximum distance (Dmax): 109.5 Å
[4]
  sedimentation coefficient: 1.6 Svedberg (S)
